Measurements from the RNAGym collection of RNA variant scans (doi:10.7554/elife.90254).

B1: LINE1-full (parent)
chain: UACGUAGGUGGUUUUCCCCUGAUAGUGCUAAGGGGGCCUGGAAGUUUGGACUGGGCAGAGCUCAACACAGCGUGGCAAAGUGGCUGUGGCUAGACUGCCUCUCUGGAUUCCUCGUCACUCAGCAGGGCAUCUCUGAGAGAAAUGCC

Variants of: B1
Assay: self-cleavage, relative activity (ratio to wild type); higher = more cleavage; in vitro, sequencing; the parent is a self-cleaving ribozyme
For UACGUAGGUGGUUUUCCCCUGAUAGUGCUAAGGGGGCCUGGAAGUUUGGACUGGGCAGAGCUCAACACGGCGUGGCAAAGUGGCUGUGGCUAGACUGCCUCUCUGGAUUCCUCGUCACUCAGCAGGGCACCUCUGAGAGAAAUGCC [A69G U130C], the self-cleavage was 0.67.
Variant UACGUAGGUGGUUUUCCCCUGAUAGUGCUAAGGGGGCCUGGAAGUUUGGACUGGGCAGAGCUCAACACAGCGUGGCAAAGUGGCUGUGGCUAGACUGCCUCUCUGGAUCCCUCGUCACUCAGCAGGGCAUCUCUGUGAGAAAUGCC [U109C A136U] has a self-cleavage of 1.45.
Variant UACGUAGGUGGUUUUCCCCUGAUAGUGCUAAGGGGGCCUGGAAGUUUAGACUGGGCAGAGCUCAACACAGCGUGGCAAAGUGGCUGUGGCUAGACUGCCUCCCUGGAUUCCUCGUCACUCAGCAGGGCAUCUCUGAGAGAAAUGCC [G48A U102C] has a self-cleavage of 1.94.
In the case of UACGUAGGUGGUUUUCCCCUGAUAGUGCUAAGGGGGCCUGGAAGUUUGGACUGGGCAGAGCUCAACACAGCGUGGCAAAGUGGCUGUGGCGAGACUGCCUCUCUGGAUUCCUCGUCACUCAGCAGGGCAUCUCUGAGAGAAAUGCC [U91G], the self-cleavage is reported as 0.04.
In the case of UACGUAGGUGGUUUUCCCCUGACAGUGCUAAGGGGGCCUGGAAGUUUGGAAUGGGCAGAGCUCAACACAGCGUGGCAAAGUGGCUGUGGCUAGACUGCCUCUCUGGAUUCCUCGUCACUCAGCAGGGCAUCUCUGAGAGAAAUGCC [U23C C51A], the self-cleavage is reported as 0.98.
Variant UACGUAGGUGGUUUUCCCCUGAUAGUGCUAAGGGGGCCUGGAAGUUUGGACUGGGCAGAGCUCAACACAGCGUGGCAAAGUGGCUGUGGCUAGACUGCCUCUCUGGAUUCCACGUCACUCAGCAGGGCAUCUCUGAGAGAGAUGCC [U112A A141G] has a self-cleavage of 1.43.
For UACGUAGGUGGUUUUCCCCUGAUGGUGCUAAGGGGGCCUGGAAGUUUGGACUGGGCAGAGCUCAACACAGCGUGGCAAAGAGGCUGUGGCUAGACUGCCUCUCUGGAUUCCUCGUCACUCAGCAGGGCAUCUCUGAGAGAAAUGCC [A24G U81A], the self-cleavage was 0.47.
UACGUAGGUGGUGUUCCCCUGAUAGUGCUAAGGGGGCCUGGAAGUUUGGACUGGGCAGAGCUCAACACAGCGUGGCAAAGUGGCUGUGGCUAGGCUGCCUCUCUGGAUUCCUCGUCACUCAGCAGGGCAUCUCUGAGAGAAAUGCC [U13G A94G] showed a self-cleavage of 0.37.
UACGUAGGUGGUUUUCCCCUGAUAGUGCUAAGGGGGCCUGGAAGUUUGGACUGGGCAGAGCUCAACACAGCGUGGCAAAGUGGCUGUGGCUAGGCUGCCUCUCUGGAUACCUCGUCACUCAGCAGGGCAUCUCUGAGAGAAAUGCC [A94G U109A] gave a self-cleavage of 0.39.
In the case of UACGUAGGUGGUUUUCCCCUGAUAGUGCUAAGGGGGCCAGGAAGUUUGGACUGGGCAGAGCUCAACACAGCGUGGCAAAGUGGCUGUGGCUAGACUGCCUCUCUGGAUUCAUCGUCACUCAGCAGGGCAUCUCUGAGAGAAAUGCC [U39A C111A], the self-cleavage is reported as 1.55.
UACGUAGGUGGUUUUCCCCUGAUAGUGCUAAGGGGGCCUGGAAGUUUGGACUGGGCAGAGCUCAACGCAGCGUGGCAAAGUGGCUGUAGCUAGACUGCCUCUCUGGAUUCCUCGUCACUCAGCAGGGCAUCUCUGAGAGAAAUGCC [A67G G88A] gave a self-cleavage of 0.05.
UACGUAGGUGGUUUUCCCCUGAUUGUGCUAAGGGGGCCUGGAAGUUUGGACUGGGCAGAGCUCAACACAGCGUGGCAAAGUGGCUGUGGCUAGACUGCCUCUCUGGAUUCCUCGCCACUCAGCAGGGCAUCUCUGAGAGAAAUGCC [A24U U115C] showed a self-cleavage of 1.92.
In the case of UACGUAGGUGGUUUUCCCCUGAUAGUGCUAAGGGGACCUGGAAGUUUGGACUGGGCAGAGCUCAACACAGCGUGGCAAAGUGGCUGUGGCUAGACUGCCUCUCUGGAUUCCUCGUCACUCAGCUGGGCAUCUCUGAGAGAAAUGCC [G36A A124U], the self-cleavage is reported as 0.31.
Work on UACGUAGGUGGUUUUCCCCUGAUAGUGCUAAGGGGGCCUGGAAGUUUGGACUGGGCAGAGCUCAACACAGCGUGGCAAAGUGGCUGUGGCUAGACUGCCUCACUGGAUUCCUCGUCACUCAGCAGGGCAACUCUGAGAGAAAUGCC [U102A U130A] yielded a self-cleavage of 1.28.
Variant UACGUAGGUGGUUUUCCCCUGAUAGUGCUAAGGGGGCCUGGAAGUUUGAACUGGGCAGAGCUCAACACAGCGUGGCAAAGUGGCUGUGGCUAGACUGCCUCUCUGGAUUCCUCGUCACUCAGCAGGGCAUCUCUGAGAGAAACGCC [G49A U143C] has a self-cleavage of 1.09.
For UACGUAGGUGGUUUUCCCCUGAUAGUGCUAAGUGGGCCUGGAAGUUUGGACUGGGCAGAGCUCAACACAGCGUGGCAAAGUGGCCGUGGCUAGACUGCCUCUCUGGAUUCCUCGUCACUCAGCAGGGCAUCUCUGAGAGAAAUGCC [G33U U85C], the self-cleavage was 0.06.
In the case of UACGUAGGUGGUUUUCCCCUGGUAGUGCUAAGGGGGCCUGGAAGUUUGGACUGGGCAGGGCUCAACACAGCGUGGCAAAGUGGCUGUGGCUAGACUGCCUCUCUGGAUUCCUCGUCACUCAGCAGGGCAUCUCUGAGAGAAAUGCC [A22G A59G], the self-cleavage is reported as 0.16.
For UACGUAGGUGGUUUUCCCCUGAUAGUGCUAAGGGGGCCUGGAAGUGUGGACUGGGCAGAGCUCAACACAGCGUGGCAAAGUGGCUGUGGCUAGACUGCCUCUCUGGAUUCCUCGUCACUCAGCAGGGCGUCUCUGAGAGAAAUGCC [U46G A129G], the self-cleavage was 1.93.
Variant UACGCAGGUGGUUUUCCCCUGAUAGUGCUAAGGGGGCCUGGAAGUUUGGACUGGGCAGAGCUCAACACGGCGUGGCAAAGUGGCUGUGGCUAGACUGCCUCUCUGGAUUCCUCGUCACUCAGCAGGGCAUCUCUGAGAGAAAUGCC [U5C A69G] has a self-cleavage of 0.78.
For UACGUAGGUGGUUUUCCCCUGAUAGUGCUAAGGGGGCCUGGAAGUUUGGACUGGGCAGAGCUCAACACAGCGUGGCAAAGUGGCUGUGGCUAGACUGCCUCUCUGGAUUCCUCGUCACUCAGCCGGGCACCUCUGAGAGAAAUGCC [A124C U130C], the self-cleavage was 1.84.
With UACGUAGGGGGUUUUCCCCUGAUAGUGCUAAGGGGGCCUGGAAGUUUGGACUGGGCAGAGCCCAACACAGCGUGGCAAAGUGGCUGUGGCUAGACUGCCUCUCUGGAUUCCUCGUCACUCAGCAGGGCAUCUCUGAGAGAAAUGCC [U9G U62C] the self-cleavage was 0.16.
Variant UACGUAGGUGGUUUUCCCCUGAUAGUGCUAAGGGGGCCUGGAAGUUUGGACUGGGCAGAGCUCAACACAGCGUGGCAAAGUGGCUGUGGCUAGACUGCCUCUCUGGAUUCCUCGUCACUCAGCAGGGCGUCUCCGAGAGAAAUGCC [A129G U134C] has a self-cleavage of 1.43.
UACGUAGGUGGUUUUCCCCUGAUAGUGCUAAGGGGGCCUGGAAGUUUGGACUGGGCAGAGCUCAACACAGCGUGGCAAAGUGGCUGUGGCUAGACUGCCUCCCUGGAUUCCUCGUCACUCAGCAGGGCAUCUCUGAGUGAAAUGCC [U102C A138U] gave a self-cleavage of 1.49.
In the case of UACGUAGGAGGUUUUCCCCUGAUAGUGCUAAGGGGGCCUGGAAGUUUGGACUGGGCAGAGCUCAACACAGCGUGGCAAAGUGGCUGUGGCUAGACUGCCUCUCCGGAUUCCUCGUCACUCAGCAGGGCAUCUCUGAGAGAAAUGCC [U9A U104C], the self-cleavage is reported as 1.17.
With UACUUAGGUGGUCUUCCCCUGAUAGUGCUAAGGGGGCCUGGAAGUUUGGACUGGGCAGAGCUCAACACAGCGUGGCAAAGUGGCUGUGGCUAGACUGCCUCUCUGGAUUCCUCGUCACUCAGCAGGGCAUCUCUGAGAGAAAUGCC [G4U U13C] the self-cleavage was 0.93.
UACGUAGGUGUUUUUCCCCUGAUAGUGCUAAGGGGGCCUGGAAGUUUGGACUGGGCAGAGCUCAACACAGCGUGGCAAAGUGGCUGUGGCUAGACUGCCUCUCUGGAUUCCUCGUCACUCAGCUGGGCAUCUCUGAGAGAAAUGCC [G11U A124U] showed a self-cleavage of 1.31.
UCCGUAGGUGGUUUUCCCCUGAUAGUGCUAAGGGGGCCUGGAAGUUUGGACUGGGCAGAGCUCAACACAGCGUGGCAAAGUGGCUGUGGCUAGACUGCCUCUCUGGGUUCCUCGUCACUCAGCAGGGCAUCUCUGAGAGAAAUGCC [A2C A107G] gave a self-cleavage of 1.15.
Variant UACGUAGGAGGUUUUCCCCUGAUAGUGCUAAGGGGGCCUGGAAGUUUGGACUGGGCAGAGCUCAACACAGCGUGGCAAAGUGGCUGUGGCUAGACUGCCUCUCUGGAUUCCUCGCCACUCAGCAGGGCAUCUCUGAGAGAAAUGCC [U9A U115C] has a self-cleavage of 1.55.
In the case of UACGUAGGUGGUUUUCCCCUGAUAGUGCUAAGGGGGCCUGGAAGCUUGGGCUGGGCAGAGCUCAACACAGCGUGGCAAAGUGGCUGUGGCUAGACUGCCUCUCUGGAUUCCUCGUCACUCAGCAGGGCAUCUCUGAGAGAAAUGCC [U45C A50G], the self-cleavage is reported as 1.
Work on UACGUAGGUGGUUUUCCCCUGAUAGUGCUAAGGGGGCCUGGAAGUUUGGACUGGGCAGGGCUCAACACAGCGUGGCAAAGUGGCUGUGGCUAGACUGCCUCUCUGGAUUCCUCGUCACUCAGCAGGGCAUCUGUGAGAGAAAUGCC [A59G C133G] yielded a self-cleavage of 0.12.
UACGUAGGUGGUGUUCCCCUGAUAGUGCUAAGGGGGCCUGGAAGUUUGGACUGGGCAGAGCUCAACGCAGCGUGGCAAAGUGGCUGUGGCUAGACUGCCUCUCUGGAUUCCUCGUCACUCAGCAGGGCAUCUCUGAGAGAAAUGCC [U13G A67G] showed a self-cleavage of 1.9.
UAGGUAGGUGGUUUUCCCCUGAUAGUGCUAAGGGGGCCUGGAAGUUUGGACUGGGCAGAGCUCAACACAGCGUGGCAAGGUGGCUGUGGCUAGACUGCCUCUCUGGAUUCCUCGUCACUCAGCAGGGCAUCUCUGAGAGAAAUGCC [C3G A79G] gave a self-cleavage of 1.04.
Variant UACGUAGGUGGUUUUCCCCUGAUAGUGCAAAGGGGGCCUGGAAGUUUGGACCGGGCAGAGCUCAACACAGCGUGGCAAAGUGGCUGUGGCUAGACUGCCUCUCUGGAUUCCUCGUCACUCAGCAGGGCAUCUCUGAGAGAAAUGCC [U29A U52C] has a self-cleavage of 1.3.
UACGUAGGUGGUUUUCCCCUGAUAGUGCUAAGGGGGCCUGGAAGUUUGGACUGGGCAGAGCUCAACACAGCGUGGCGAAGUGGCUGUGGCUAGACCGCCUCUCUGGAUUCCUCGUCACUCAGCAGGGCAUCUCUGAGAGAAAUGCC [A77G U96C] showed a self-cleavage of 0.18.
For UACGUAGGUGGUUUUCCCCUGAUAGUGCUAAGGGGGCCUGGAAGUUUGGACUGGGCAGAGCUCAACACAGCGUGGCAAAGUGGCUGUGGCUAGACAGCCUCUCUGGAUUCCUCGUCACUCAGCAGGGCAUCCCUGAGAGAAAUGCC [U96A U132C], the self-cleavage was 0.12.
UACGUAGGUGGUAUUCCCCUGAUAGUGCUAAGGGGGCCUGGAAGUUUGGACUGGGCAGAGCUCAACACAGCGUGGCAAAGUGGCUGUGGCUAGACUGCCUCUCUGGAUUCCUCGUCAUUCAGCAGGGCAUCUCUGAGAGAAAUGCC [U13A C118U] showed a self-cleavage of 0.52.
In the case of UACGUAGGUGGUUUUCCCCUGAUAGUGCUAAGGGGGCCUGGAAGUUUGGACUGGGCAUAGCUCAACACAGCGUGGCAAAGUGGCUGUGGCUAGACUGCCUCUCUGGAUUCCUCGUCACUCAGCAGGGCAUCUCUGAGAGAAGUGCC [G58U A142G], the self-cleavage is reported as 0.03.
Variant UACGUAGGUGGUUUUCCCCUGAUAGUGCUAAGGGGGCCUGGAGGUUUGGACUGGGCAGAGCUCAACACAGCGUGGCAAAGUGGCUGUGGCUAGACUGCCUCUCUGGGUUCCUCGUCACUCAGCAGGGCAUCUCUGAGAGAAAUGCC [A43G A107G] has a self-cleavage of 1.5.
For UACGUAGGUGGUUUUCCCCUAAUAGUGCUAAGGGGGCCUGGAAGUUUGGACUGGGCCGAGCUCAACACAGCGUGGCAAAGUGGCUGUGGCUAGACUGCCUCUCUGGAUUCCUCGUCACUCAGCAGGGCAUCUCUGAGAGAAAUGCC [G21A A57C], the self-cleavage was 0.09.
